In one series the test system is GAGE12I. As to the kind of experiment: EMSA. The note with it: EMSA: 20 mM Tris pH 7.4, 50 mM NaCl, 1 mM DTT, 5 min or as indicated, 20 C, 1 pg/ul DNA. Calf thymus DNA-cellulose pull-downs (P1, P2; undefined DNA, not …). (A gel shift assay detects complexes by their altered migration in electrophoresis.)
Series [1] deals with GAGE12I (Lumier fusion, HEK293) (human). As to the kind of experiment: pull-down; Lumier (luminescence-based mammalian interactome mapping): protein A and Renilla luciferase fusions co-expressed in HEK293, lysed in 20 mM Tris-HCl pH 7.5, 250 mM NaCl, 1% Triton X-100, 10 mM EDTA, 10 mM DTT with Benzonase; protein A fusions isolated on IgG-coated magnetic beads …; luciferase bound/input normalised to a protein A dimer control and given as Z scores; both orientations.
Sequence of GAGE12I (Lumier fusion, HEK293) (human) (A1L429 whole entry, the tested form may be a part): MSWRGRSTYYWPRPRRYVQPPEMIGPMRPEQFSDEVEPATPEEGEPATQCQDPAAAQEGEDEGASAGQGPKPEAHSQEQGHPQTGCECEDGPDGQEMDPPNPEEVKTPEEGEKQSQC

For pUC19 90-bp EcoRI-PvuII fragment, the K half in the series with GAGE12I was less than 7.3 µM. “full-length GCL (Lumier fusion, HEK293) (from UniProt Q96IK5 1-515) (natural protein)” yielded a Z score in series [1] of 3.4 to 5.3.

For the origin of these results see PMC3447759.
